These results are taken from paper PMC5340040.

The target in experiment [1] is MgF-actin (rabbit skeletal muscle actin, filament) (rabbit) (UniProt P68135).
The target is the same in experiment [2]. The source holds these as a separate data set.
Experiment [3] has the same target. This is another data set of the same source.

Chain of Histatin-3 (peptide) (P15516 20-51): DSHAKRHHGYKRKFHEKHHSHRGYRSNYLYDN

With Histatin-3 (peptide), in experiment [1], the bundling of 8 μM F-actin (low speed centrifugation): histatin concentration for 50% bundling is 5 µM. Further, in experiment [2], the NaCl concentration (0-200 mM) at which bundles of 4 μM F-actin induced by 16 μM histatin are largely dissociated (low speed centrifugation) came to 100 mM. In addition, the decrease of the fluorescence emission at 581 nm of 5 μM TRC-F-actin (TRC on Gln41) by 8 μM histatin-3 in experiment [3] stood at 22.3%.
